The text below walks through data of doi:10.1101/2024.02.23.581731 (bioRxiv, 2024).

Data set [1] concerns the molecule itself. Description: cryo-EM structure.
Data set [2] concerns the molecule itself. Description: cryo-EM structure. The source holds these as a separate data set.

“And” between values parts separate entries of the source, which are not always exact repeats. Identical values can stand only once. Like-named read-outs stand apart in the source and are kept apart here.

B1: mouse wild-type 5-HT3A receptor (receptor, UniProt P23979 24-489, looked up)
chain: SRRRATQARDTTQPALLRLSDHLLANYKKGVRPVRDWRKPTTVSIDVIMYAILNVDEKNQVLTTYIWYRQYWTDEFLQWTPEDFDNVTKLSIPTDSIWVPDILINEFVDVGKSPNIPYVYVHHRGEVQNYKPLQLVTACSLDIYNFPFDVQNCSLTFTSWLHTIQDINITLWRSPEEVRSDKSIFINQGEWELLEVFPQFKEFSIDISNSYAEMKFYVIIRRRPLFYAVSLLLPSIFLMVVDIVGFCLPPDSGERVSFKITLLLGYSVFLIIVSDTLPATAIGTPLIGVYFVVCMALLVISLAETIFIVRLVHKQDLQRPVPDWLRHLVLDRIAWILCLGEQPMAHRPPATFQANKTDDCSGSDLLPAMGNHCSHVGGPQDLEKTPRGRGSPLPPPREASLAVRGLLQELSSIRHFLEKRDEMREVARDWLRVGYVLDRLLFRIYLLAVLAYSITLVTLWSIWHYS
One may read the stoichiometry N as the number of molecules, sites or subunits per partner or assembly. As for B1, in data set [1], the “stoichiometry N” value was 5.

B2: human wild-type 5-HT3A receptor (receptor, UniProt P46098 24-478, looked up)
chain: RRSRNTTRPALLRLSDYLLTNYRKGVRPVRDWRKPTTVSIDVIVYAILNVDEKNQVLTTYIWYRQYWTDEFLQWNPEDFDNITKLSIPTDSIWVPDILINEFVDVGKSPNIPYVYIRHQGEVQNYKPLQVVTACSLDIYNFPFDVQNCSLTFTSWLHTIQDINISLWRLPEKVKSDRSVFMNQGEWELLGVLPYFREFSMESSNYYAEMKFYVVIRRRPLFYVVSLLLPSIFLMVMDIVGFYLPPNSGERVSFKITLLLGYSVFLIIVSDTLPATAIGTPLIGVYFVVCMALLVISLAETIFIVRLVHKQDLQQPVPAWLRHLVLERIAWLLCLREQSTSQRPPATSQATKTDDCSAMGNHCSHMGGPQDFEKSPRDRCSPPPPPREASLAVCGLLQELSSIRQFLEKRDEIREVARDWLRVGSVLDKLLFHIYLLAVLAYSITLVMLWSIWQYA
Regarding B2, the “stoichiometry N” value in data set [2] was 5 and 4.
